# Laboratory results from the Immune Epitope Database (IEDB).
# Key:
# HLA-A*68:02 [1] = assay: IEDB peptide-MHC binding, purified MHC/competitive/fluorescence; filed as Kd, often an IC50 or EC50 that approximates it; ≥ and ≤ were set here for values at or beyond the usual limits of such assays; conditions: source organism: Entamoeba histolytica HM-1:IMSS
# HLA-A*24:02 = assay: as above
# HLA-A*31:01 [2] = assay: IEDB peptide-MHC binding, purified MHC/direct/fluorescence; filed as Kd, often an IC50 or EC50 that approximates it; ≥ and ≤ were set here for values at or beyond the usual limits of such assays
# HLA-A*11:01 [3] = assay: as above
# HLA-B*58:01 = assay: as above
# HLA-B*48:01 = assay: as above; conditions: source organism: Giardia lamblia ATCC 50803
# HLA-B*08:02 = assay: as above
# HLA-B*15:17 = assay: as above
# HLA-B*27:05 = assay: as above; conditions: source organism: Giardia lamblia ATCC 50803
# HLA-A*01:01 [4] = assay: as above
# HLA-B*51:01 = assay: as above
# HLA-B*08:01 [5] = assay: as above; conditions: source organism: Giardia lamblia ATCC 50803
# HLA-B*18:01 = assay: as above
# HLA-B*38:01 = assay: as above; conditions: source organism: Giardia lamblia ATCC 50803
# HLA-A*03:01 [6] = assay: as above
# HLA-A*02:01 = assay: as above
# HLA-B*57:01 = assay: as above
# HLA-A*26:01 = assay: as above
# HLA-A*69:01 = assay: as above
# HLA-B*07:02 [7] = assay: as above; conditions: source organism: Giardia lamblia ATCC 50803
# HLA-B*40:01 = assay: as above; conditions: source organism: Giardia lamblia ATCC 50803
# HLA-B*46:01 = assay: as above
# HLA-B*15:01 [8] = assay: as above
# HLA-B*27:03 = assay: as above; conditions: source organism: Brucella suis 1330
# HLA-A*02:12 = assay: as above; conditions: source organism: Brucella suis 1330
# HLA-A*02:16 = assay: as above; conditions: source organism: Brucella suis 1330
# HLA-B*39:01 = assay: as above; conditions: source organism: Brucella suis 1330
# HLA-A*02:19 = assay: as above; conditions: source organism: Brucella suis 1330
# HLA-A*02:03 = assay: as above; conditions: source organism: Brucella suis 1330
# HLA-A*31:01 [9] = assay: IEDB peptide-MHC binding, purified MHC/competitive/radioactivity; filed as Kd, often an IC50 or EC50 that approximates it; ≥ and ≤ were set here for values at or beyond the usual limits of such assays; conditions: source organism: Vaccinia virus WR
# HLA-A*68:01 = assay: as above; conditions: source organism: Vaccinia virus WR
# HLA-A*33:01 = assay: as above; conditions: source organism: Vaccinia virus WR
# HLA-A*11:01 [10] = assay: IEDB peptide-MHC binding, purified MHC/competitive/fluorescence; ≥ and ≤ were set here for values at or beyond the usual limits of such assays; conditions: source organism: Vaccinia virus Copenhagen
# HLA-A*01:01 [11] = assay: as above; conditions: source organism: Vaccinia virus Copenhagen
# HLA-A*03:01 [12] = assay: as above; conditions: source organism: Vaccinia virus Copenhagen
# HLA-B*15:01 [13] = assay: as above; conditions: source organism: Vaccinia virus Copenhagen
# HLA-C*15:02 = assay: IEDB peptide-MHC binding, purified MHC/direct/fluorescence; filed as Kd, often an IC50 or EC50 that approximates it; ≥ and ≤ were set here for values at or beyond the usual limits of such assays; conditions: source organism: Listeria monocytogenes EGD-e
# HLA-C*14:02 = assay: as above; conditions: source organism: Listeria monocytogenes EGD-e
# HLA-A*24:03 = assay: as above
# HLA-C*07:02 = assay: as above; conditions: source organism: Listeria monocytogenes EGD-e
# HLA-B*08:01 [14] = assay: IEDB peptide-MHC binding, purified MHC/competitive/fluorescence; filed as Kd, often an IC50 or EC50 that approximates it; ≥ and ≤ were set here for values at or beyond the usual limits of such assays; conditions: source organism: Variola virus
# HLA-B*07:02 [15] = assay: as above; conditions: source organism: Variola virus
# HLA-A*26:02 = assay: IEDB peptide-MHC binding, purified MHC/direct/fluorescence; filed as Kd, often an IC50 or EC50 that approximates it; ≥ and ≤ were set here for values at or beyond the usual limits of such assays; conditions: source organism: Variola virus
# HLA-A*68:02 [16] = assay: as above; conditions: source organism: Camelpox virus M-96
# HLA-A*26:03 = assay: as above; conditions: source organism: Variola virus
# [17] = source organism: Giardia lamblia ATCC 50803
# [18] = source organism: Brucella suis 1330
# [19] = source organism: Listeria monocytogenes EGD-e
# [20] = source organism: Camelpox virus M-96
sequence,measurement,setting,value
MVPKSFTYS,Kd,HLA-A*68:02 [1],0.0762 µM
LYKKLKREITF,Kd,HLA-A*24:02; source organism: Influenza A virus (A/goose/Hong Kong/437-6/1999(H5N1)),0.0051 µM
SWFNSFLTHAL,Kd,HLA-A*24:02; source organism: Influenza A virus (A/X-31(H3N2)),0.15 µM
RYGPALSI,Kd,HLA-A*24:02; source organism: Influenza A virus H3N2,≤ 0.0001 µM
QPWTPVSSF,Kd,HLA-A*31:01 [2]; [17],≥ 20 µM
same,Kd,HLA-A*11:01 [3]; [17],≥ 20 µM
same,Kd,HLA-B*58:01; [17],19.1 µM
same,Kd,HLA-B*48:01,≥ 20 µM
same,Kd,HLA-B*08:02; [17],≥ 20 µM
same,Kd,HLA-B*15:17; [17],2.62 µM
same,Kd,HLA-B*27:05,≥ 20 µM
same,Kd,HLA-A*01:01 [4]; [17],≥ 20 µM
same,Kd,HLA-B*51:01; [17],≥ 20 µM
same,Kd,HLA-B*08:01 [5],≥ 20 µM
same,Kd,HLA-B*18:01; [17],2.44 µM
same,Kd,HLA-B*38:01,≥ 20 µM
same,Kd,HLA-A*03:01 [6]; [17],≥ 20 µM
same,Kd,HLA-A*02:01; [17],≥ 20 µM
same,Kd,HLA-B*57:01; [17],≥ 20 µM
same,Kd,HLA-A*26:01; [17],≥ 20 µM
same,Kd,HLA-A*69:01; [17],≥ 20 µM
same,Kd,HLA-B*07:02 [7],0.134 µM
same,Kd,HLA-B*40:01,≥ 20 µM
same,Kd,HLA-B*46:01; [17],≥ 20 µM
same,Kd,HLA-B*15:01 [8]; [17],≥ 20 µM
DPPEPLVRI,Kd,HLA-B*27:03,≥ 20 µM
same,Kd,HLA-A*02:12,≥ 20 µM
same,Kd,HLA-A*02:16,≥ 20 µM
same,Kd,HLA-B*39:01,≥ 20 µM
same,Kd,HLA-B*51:01; [18],1.87 µM
same,Kd,HLA-B*18:01; [18],≥ 20 µM
same,Kd,HLA-A*02:19,≥ 20 µM
same,Kd,HLA-A*03:01 [6]; [18],≥ 20 µM
same,Kd,HLA-A*02:01; [18],≥ 20 µM
same,Kd,HLA-B*57:01; [18],≥ 20 µM
same,Kd,HLA-A*02:03,≥ 20 µM
same,Kd,HLA-A*26:01; [18],≥ 20 µM
same,Kd,HLA-A*69:01; [18],≥ 20 µM
same,Kd,HLA-B*46:01; [18],≥ 20 µM
same,Kd,HLA-B*15:01 [8]; [18],≥ 20 µM
VTAASPMLY,Kd,HLA-A*31:01 [9],≥ 77.9 µM
same,Kd,HLA-A*68:01,0.861 µM
same,Kd,HLA-A*33:01,14.5 µM
same,IC50,HLA-A*11:01 [10],1.17 µM
same,IC50,HLA-A*01:01 [11],1.29 µM
same,IC50,HLA-A*03:01 [12],10.5 µM
same,IC50,HLA-B*15:01 [13],4.45 µM
RYPRSVLTF,Kd,HLA-A*24:02; [19],≤ 0.0001 µM
same,Kd,HLA-C*15:02,≥ 20 µM
same,Kd,HLA-C*14:02,≤ 0.001 µM
same,Kd,HLA-A*24:03; [19],≤ 0.001 µM
same,Kd,HLA-C*07:02,0.044 µM
IFLIITKVF,Kd,HLA-B*08:01 [14],≥ 20 µM
same,Kd,HLA-B*07:02 [15],3 µM
same,Kd,HLA-A*31:01 [2]; [20],≥ 20 µM
same,Kd,HLA-A*11:01 [3]; [20],≥ 20 µM
same,Kd,HLA-A*26:02,≥ 20 µM
same,Kd,HLA-B*58:01; [20],≥ 20 µM
same,Kd,HLA-B*08:02; source organism: Variola virus,≥ 20 µM
same,Kd,HLA-B*15:17; [20],≥ 20 µM
same,Kd,HLA-A*01:01 [4]; [20],≥ 20 µM
same,Kd,HLA-B*18:01; [20],≥ 20 µM
same,Kd,HLA-A*02:01; [20],≥ 20 µM
same,Kd,HLA-B*57:01; [20],≥ 20 µM
same,Kd,HLA-A*26:01; source organism: Variola virus,≥ 20 µM
same,Kd,HLA-A*24:03; [20],1.1 µM
same,Kd,HLA-A*69:01; [20],≥ 20 µM
same,Kd,HLA-A*68:02 [16],≥ 20 µM
same,Kd,HLA-A*26:03,≥ 20 µM
same,Kd,HLA-B*15:01 [8]; [20],≥ 20 µM
